Data on 35 variants can be found in the Human Domainome abundance scans (Beltran et al. 2025).

Sequences and labels used below:
B1: Storkhead-box protein 2, residues 64 to 141; numbered along this chain, Q9P2F5 (parent)
chain: SPISQSQFIPLGEILCLAISAMNSARKPVTQEALMEHLTTCFPGVPTPSQEILRHTLNTLVRERKIYPTPDGYFIVTP

± gives the uncertainty stated by the source.

The data set covers variants of B1. Kind of data set: abundance fitness (aPCA) (normalised: wild type 0, dead -1); higher = more abundant; growth selection in yeast, the domain comes from the species named. The following applies: Homo sapiens.
As for SPISQSQFIPLGEILCLAISAMNSARKPVTQEALMEHLTTCFPGVPTPSQEILRHTLNTLVRERKIYPVPDGYFIVTP [T69V], the abundance fitness is -0.13 ± 0.044.

Turning to SPISQSQFIPLGEILCLAISAMNSARKPVTQEALMEHLTTCFPGVPTPEQEILRHTLNTLVRERKIYPTPDGYFIVTP [S49E], the abundance fitness was -0.24 ± 0.063.

With SPISQSQFIPLGEILCLAISAMNSARKPVTQEALMEHLTTCFPGVPTPNQEILRHTLNTLVRERKIYPTPDGYFIVTP [S49N], the abundance fitness is -0.173 ± 0.11.

With SPISQSQFIPLGEILCLAISAMNSARKPVTQEALMEHLTTCFPGVPTPSQEILRHTLNMLVRERKIYPTPDGYFIVTP [T59M], the abundance fitness was -0.023 ± 0.061.

As to SPISQSQFIPLGEILCLAISAMNSARKPVTQEALMEHLTTCFPGVPTPSQEILRHTLNHLVRERKIYPTPDGYFIVTP [T59H], the abundance fitness amounted to 0.049 ± 0.082.

For the variant SPISQSQFIPLGEILCLAISAMNSARKPVTQEALMEHLTTCFPGVPQPSQEILRHTLNTLVRERKIYPTPDGYFIVTP [T47Q], the abundance fitness is -0.067 ± 0.054.

SPISQSQFIPLGEKLCLAISAMNSARKPVTQEALMEHLTTCFPGVPTPSQEILRHTLNTLVRERKIYPTPDGYFIVTP [I14K]: the abundance fitness is -0.039 ± 0.2.

In the case of SPISQSQFIPLGEILCLAISAMNSARKPVTQEAWMEHLTTCFPGVPTPSQEILRHTLNTLVRERKIYPTPDGYFIVTP [L34W], the abundance fitness is -0.994 ± 0.12.

Turning to SPISQSQFIPLGEILCLAISAMNSARKPVTQEAVMEHLTTCFPGVPTPSQEILRHTLNTLVRERKIYPTPDGYFIVTP [L34V], the abundance fitness was -0.045 ± 0.039.

Turning to SPISQSQFIPLGEILCLAISAMNSARKPVTQEALMEHLTTCFPGWPTPSQEILRHTLNTLVRERKIYPTPDGYFIVTP [V45W], the abundance fitness came out at 0.028 ± 0.042.

Turning to SPISQSQFIPLGEILCLAISAMNSARKPVTQEALMEHLTTCFPGFPTPSQEILRHTLNTLVRERKIYPTPDGYFIVTP [V45F], the abundance fitness stood at 0.067 ± 0.069.

On to SPISQSQFIPLGEILCLAISAMNSARKPVTQEALMEHLATCFPGVPTPSQEILRHTLNTLVRERKIYPTPDGYFIVTP [T39A], for which the abundance fitness is -0.025 ± 0.053.

Consider SPISQSQFIPLGEILCLAISAMNSARKPVTQEALMEHLTTCFPGVPTPSQEILRHTENTLVRERKIYPTPDGYFIVTP [L57E], for which the abundance fitness was -0.784 ± 0.26.

Regarding SPISQSQFIPLGEILCLAISAMNSARKPVTQEALMEHLTTCFCGVPTPSQEILRHTLNTLVRERKIYPTPDGYFIVTP [P43C], the abundance fitness is -0.135 ± 0.026.

As to SPISQSQFIPLGEILCLAISAMNSARKPVTQEALMEHLTTCFGGVPTPSQEILRHTLNTLVRERKIYPTPDGYFIVTP [P43G], the abundance fitness is -0.101 ± 0.036.

With SPISQSQFIPLGEILCLAISAMNSARKPVTQEALMEHLTTCFYGVPTPSQEILRHTLNTLVRERKIYPTPDGYFIVTP [P43Y], the abundance fitness is -0.109 ± 0.093.

Consider SPISQSQFIPLGEILCLAISAMNSARKPVTQEALMEHLTTCIPGVPTPSQEILRHTLNTLVRERKIYPTPDGYFIVTP [F42I], for which the abundance fitness came to 0.009 ± 0.15.

As to SPISQSQFIPLGEILCLAISAMNSARKPVTQEALMEHLTTCLPGVPTPSQEILRHTLNTLVRERKIYPTPDGYFIVTP [F42L], the abundance fitness is -0.08 ± 0.1.

Regarding SPISQSQFIPLGEILCLAISAMNSARKPMTQEALMEHLTTCFPGVPTPSQEILRHTLNTLVRERKIYPTPDGYFIVTP [V29M], the abundance fitness is -0.278 ± 0.077.

On to SPISLSQFIPLGEILCLAISAMNSARKPVTQEALMEHLTTCFPGVPTPSQEILRHTLNTLVRERKIYPTPDGYFIVTP [Q5L], for which the abundance fitness is -0.079 ± 0.043.

With SPISHSQFIPLGEILCLAISAMNSARKPVTQEALMEHLTTCFPGVPTPSQEILRHTLNTLVRERKIYPTPDGYFIVTP [Q5H], the abundance fitness was -0.099 ± 0.081.

As to SPISQSQFIPLGEILCLNISAMNSARKPVTQEALMEHLTTCFPGVPTPSQEILRHTLNTLVRERKIYPTPDGYFIVTP [A18N], the abundance fitness was -0.376 ± 0.21.

With SPISQSQFIPLGEILCLAISAMNSARKPVTQEALMEHLTTCFPGVPTPSQEILRHTLNTLVRERKIYPTPRGYFIVTP [D71R], the abundance fitness was -0.088 ± 0.037.

Consider SPISQSQFIPLGLILCLAISAMNSARKPVTQEALMEHLTTCFPGVPTPSQEILRHTLNTLVRERKIYPTPDGYFIVTP [E13L], for which the abundance fitness was -0.34 ± 0.05.

On to SPISQSQFIPLGEILCLAISAMNSARKPVTQEALMEHLTTCFPGVPTPSQEILRHPLNTLVRERKIYPTPDGYFIVTP [T56P], for which the abundance fitness is -1.03 ± 0.12.

With SPISQSQFIPLGEILCLAISAMNSARKPVTQEALMEHLTTCFPGVPTPSQEILRHTLRTLVRERKIYPTPDGYFIVTP [N58R], the abundance fitness is -0.016 ± 0.036.

In the case of SPISQSQFIPLGEILCLAISAMNSARKPVTQEALMEHLTTCFPGVPTPSQEILRHTLNTLVRPRKIYPTPDGYFIVTP [E63P], the abundance fitness was -1.2 ± 0.11.

SPISQSQFIPLGEILCLAISAMNSARKPVTQEALMEHLTTCFPGVPTPSQEILRHTLNTLVRYRKIYPTPDGYFIVTP [E63Y]: the abundance fitness was -0.033 ± 0.13.

Turning to SPISQSQFIPLGEILCLAISAMNSARKPVTQEALSEHLTTCFPGVPTPSQEILRHTLNTLVRERKIYPTPDGYFIVTP [M35S], the abundance fitness amounted to 0.005 ± 0.073.

As to SPISQSQFIPLGEILCLAISAMNSARKPVTQEALMEHLTTCFPGVPTPSQEILRHTLNTLVRERKIYPTKDGYFIVTP [P70K], the abundance fitness was 0.041 ± 0.068.

In the case of SPISQSQFIPLGEILCLAHSAMNSARKPVTQEALMEHLTTCFPGVPTPSQEILRHTLNTLVRERKIYPTPDGYFIVTP [I19H], the abundance fitness is -0.852 ± 0.44.

Take SPISQSQFIPLGEILCLAISAMNSARKPVFQEALMEHLTTCFPGVPTPSQEILRHTLNTLVRERKIYPTPDGYFIVTP [T30F]: the abundance fitness was -0.074 ± 0.057.

On to SPISQSQFWPLGEILCLAISAMNSARKPVTQEALMEHLTTCFPGVPTPSQEILRHTLNTLVRERKIYPTPDGYFIVTP [I9W], for which the abundance fitness is -0.011 ± 0.063.

Take SPISQSQFIPLGEILCLAISAMNSARKPVTQEALMEHLTTTFPGVPTPSQEILRHTLNTLVRERKIYPTPDGYFIVTP [C41T]: the abundance fitness was -0.105 ± 0.072.

Take SPISQSQFIPLGEILCLAISAMNSARKPVTQEALMEHLTTEFPGVPTPSQEILRHTLNTLVRERKIYPTPDGYFIVTP [C41E]: the abundance fitness stood at 0.004 ± 0.067.
